# Test results reported in publication PMC8158043 (mAbs, 2021).
# Target: SARS-CoV-2 RBD (residues 319–541) (SARS-CoV-2, UniProt P0DTC2)
# Test: BLI
binder,measurement,value
"CR3014 parental (human IgG1) (antibody, V domains shown) VH: EVQLVESGGGLVQPGGSLRLSCAASGFTFSDHYMDWVRQAPGKGLEWVGRTRNKANSYTTEYAASVKGRFTISRDDSKNSLYLQMNSLKTEDTAVYYCARGISPFYFDYWGQGTLVTVSS VL: not shown",binding result,no binding
